Target: aryl hydrocarbon nuclear receptor translocator 2 (ARNT2), in T-REx293 lysate (human (endogenous in T-REx293)) (UniProt Q9HBZ2)
Sequence of UniProt Q9HBZ2 (Q9HBZ2 whole entry): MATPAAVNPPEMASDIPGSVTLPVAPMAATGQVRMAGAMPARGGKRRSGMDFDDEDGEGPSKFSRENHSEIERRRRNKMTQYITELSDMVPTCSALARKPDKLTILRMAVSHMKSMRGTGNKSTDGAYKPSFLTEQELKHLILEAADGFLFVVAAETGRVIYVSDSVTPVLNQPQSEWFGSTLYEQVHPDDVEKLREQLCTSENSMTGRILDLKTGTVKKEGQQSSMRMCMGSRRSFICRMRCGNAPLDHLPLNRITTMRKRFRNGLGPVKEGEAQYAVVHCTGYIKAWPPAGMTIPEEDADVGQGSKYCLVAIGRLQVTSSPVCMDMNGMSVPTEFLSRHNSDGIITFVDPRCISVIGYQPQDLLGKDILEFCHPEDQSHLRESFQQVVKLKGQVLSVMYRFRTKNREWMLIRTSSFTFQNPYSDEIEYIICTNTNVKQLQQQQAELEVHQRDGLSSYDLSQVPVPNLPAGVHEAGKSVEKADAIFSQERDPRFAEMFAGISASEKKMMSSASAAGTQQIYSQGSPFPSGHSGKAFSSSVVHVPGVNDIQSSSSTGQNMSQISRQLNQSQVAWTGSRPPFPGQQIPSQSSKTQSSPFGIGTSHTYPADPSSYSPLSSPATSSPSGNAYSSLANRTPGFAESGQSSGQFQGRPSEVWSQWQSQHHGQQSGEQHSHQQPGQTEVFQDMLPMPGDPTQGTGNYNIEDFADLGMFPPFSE

6xCME luciferase reporter gene activity compared with WT SIM2s: 50 % reduction
Substance: SIM2s-2xHA-3xFLAG W306R variant (natural protein)
